# Measured values: US20250051821
# B1: IFF21368 (protein)
# chain: QLSKPVMNPPVPFSDLDPTLFKYLKSTPHNRDQWGWGWLPARCKAIADQQGLNAYDIDVYNVHYSDCNQAWVMCRHHLSPLSIDTMAENFGRIPVRMRNFVRVQFALPQKDSSFGGATFSDLGDILWYGDVSKTLRFWIHEAGHTIDRNINPGSNDDYSKSSAWLNEYNKDGFICDDYAKNNAAENFAQEVIVALFDKVVPGGLGSVSPNWNSIFHQYATVQSKLGDILIPGGTCNRKFADDTIVCMGPAANCNSKANAKFRLKADKTQDAAIVAASDNPPIEDLFEVEE
# B2: IFF21377 (protein)
# chain: KRLDKPALTPDLGYLLQGSVDNLHPTHSTWDKWGDGWIPEDCKSMAQNPNLNLNLNPSDFEVYNVHYDDCGDAWVLCRHKDSPVDLVTTVDIFGRLPVRMRDWVRHVMTVPGNDYAFNLNGNIVFSGRTSTNMDVAIHETGHSLDLLKAYGEVLSSSQTWIDNYNQDSNVPDNYAQSSQIENVAQNTVVSVFDKIVPGGFGSVQPNWHNIFHQYATLKSKAGDLILPGGQCDRRLKDSSPIPMDSNANEQGLLSWKPRTSFVNTYNNIVTNFEPFNTAEHCKESFS
# B3: IFF21369 (protein)
# chain: QLPKPIMSPAVPFDHTDPILYQHLGSTPSTYDQWGWGWLPLRCKAVAEARGLNPYDVNVYNVHYEDCDQAWVMCRHHGAQVSLDQMIDNFGRLPVRLRNIVRHQFAVPGEGLGAYTYSDLGDIVFTGDIGHLLRFWVHEAGHAVDRNINPSQGDYSSSQAWINEYNKDGYICDEYAKNNMAENFAQEVIVALFDKVVPGGIGTIVPNWNDIFHQYATVQAVMGDMLIPGGFCNRHFADDTIVCMGPAAGCENSKRDYEGLNSTETYTAEAEEPTVCTLA
# B4: IFF21356 (protein)
# chain: GNPDKPEVNPHIPYDRLESDLRNNLHPTQSTWDYWGAGWIPQGCKDLANTYHLNPADFTIFNVHYTDCSASWTFCRHKNAGASEIDMIDIFGRLPVHMRSYIRHLVATPGLNDGAAAWTWSSGDCVVESAPNLATLVHEVSHSLDWHALPQYQQPFSSSSIWQDNYNQDSATPTGYGRTNWMENFAETGMVGVYDKVVPGGIGNIEPNWNAIFHQYATYQGYLGDKIIPGGSCANRFDDTPPVAMSNSAKVKVNSPKPGTRIDFAGTNITQIIPSKEVEGLYIKG
# B5: IFF21353 (protein)
# chain: NLDKPVIQPNFPSLAPGLMSHLAPTHSTWDDWGAGWIPQDCKSMVQGAGFSPNDIIPFNIHYDDCGQTWTFCRHKNSPLSELQILDMFGRLPVRMRSFVRHLVFVPGNRSAGSNGDNILVVGDGDITLFAHEIGHSLDSHAFDPSYGVPFSTGNVWVSNYNLDSAVSDSYAQTSQQENFAQETVISLFDKVVPGGIGTIQPNWQAIFHQYATLQGYIGNVIIPGGTCTHRLTDSPPVPMSGSAKSRRGLGPKPEVSLSPEVKEIEAIPMESSITMTSFDEHGKPNGTYVIHLK
# B6: IFF21371 (protein)
# chain: QLDKPLVVPAMPALDAGLLKHLAAPAYTTSQWEWGWIPQWCKDEAVSEKLSPYDIEVFNIHYNDCKDVWIFCRHNAAQASQKDMIDIFGRMPVRTRQFVRHILAVPGTISAGSSGDNIALRGTGPNLISVLIHEAAHSMDSHAVDSLSKPFHNTAEWLAAYKADSAISDDYAQTSQSENFAQTVVIAVFDKVVPGGIGSVQPSWAAIKNQYTTAQKWLGDLIIPGGTCTARLENSPVASMGRASGNGARMRRRARGGKPDVSLSKDTKVIPAIAGKKIHITSFAQ
# B7: IFF21357 (protein)
# chain: GNPDKPEVNPHIPYDRLESDLRNNLHPTQSTWDYWGAGWIPQGCKDLANTYHLNPADFTVFNVHYTDCSASWTFCRHKDAGASEIDMIDMLGRLPVRMRSYTRHLMATPGLNDGAAAWTWSTGDTVVESAPNLATLVHEVSHSLDWHALPQYQQPFSSSSIWQDNYNQDSATPTGYGRTNWMENFAETGMVGVYDKVVPGGIGNIESNWNSIFHQYATYQGYLGDKIIPGGSCANRFDDTAPVTMSNSAKFRVTSPKPETGIDFAGKNITQIIPSKEVEGLFIKG
# B8: IFF21355 (protein)
# chain: GNPDKPEVSPRIPYDRLESGLRNNLHPTQSTWDYWGAGWIPQGCKDLAKTYHLNPADFTIFNVHYTDCSASWTFCRHKDAGASEIDMIDIFGRLPVRMRSYIRHLMATPGLNDGAAAWTWSSGDCVVESAPNLATLVHEVSHSLDWHALPQYQQPFSSSSIWQDNYNQDSATPTGYGRTNWMENFAETGTVGVYDKVVPGGIGNIEPNWNAIFHQYATYQGYLGDKIIPGGSCANRFEDTPPVAMSNSVKFKITSPKPEIGIDFVGKNITQIIPSKEVEGLYIKG
# B9: IFF21362 (protein)
# chain: GSPDKPEMNPAFDYGRFEAGLRDNLHPTHSTWDYWGPGWIPQSCKDIATSHGLSPNDFTIFNVHYDDCQEGWTFCRHKDAGASEIDMIDIFGRAPVHMRSFIRHLVATPGLHDGAAAFTFSNGDCVVESAPDLSVMLHEMSHSLDWHALPQYPSPFSSSNEWQSNYAQDSNTPTAYGRTNWLEDFAEAGKVGVFDKVVPGGFGSVAGNWGQVFHQYATYQGYLGDTILPGGTCDKRFPNSETVPMAGNSKRMAADLGEKPDNTIKADNMTLIQMRPEIEGQVSICEHQH
# Molecular target: T1, IFF05588
# T1 chain: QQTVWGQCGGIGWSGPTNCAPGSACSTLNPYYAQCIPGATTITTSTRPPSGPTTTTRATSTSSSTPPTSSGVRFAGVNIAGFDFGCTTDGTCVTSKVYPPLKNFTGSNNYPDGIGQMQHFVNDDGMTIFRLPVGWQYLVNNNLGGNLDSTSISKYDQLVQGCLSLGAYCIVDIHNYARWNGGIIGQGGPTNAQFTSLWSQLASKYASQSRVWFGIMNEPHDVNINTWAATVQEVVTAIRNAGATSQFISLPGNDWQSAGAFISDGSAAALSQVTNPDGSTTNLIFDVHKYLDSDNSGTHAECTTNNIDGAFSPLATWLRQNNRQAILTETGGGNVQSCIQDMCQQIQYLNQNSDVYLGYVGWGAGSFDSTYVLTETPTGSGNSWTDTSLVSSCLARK
Protein,"Relative late peak area (centered, scaled, averaged over 5, 10 and 15 min)","Relative late peak area (centered, scaled, averaged over doses, 24 h; sample diluted 1-fold)","modification of IFF05588 (reverse phase chromatography, 5 to 15 min)","Relative late peak area (reverse phase chromatography, 24 h)","modification of IFF05588 (reverse phase chromatography, 24 h)"
B1,-1,-1.44,–,–,–
B2,-0.99,-1.45,–,–,–
B3,-1,-1.42,–,–,–
B4,-1.04,-1.52,"All samples containing proteins related to IFF05497 except seven (IFF21355, IFF21358, IFF21356, IFF21361, IFF21370, IFF21357 and IFF21353) are able to modify IFF05588 under these reaction conditions",–,–
B5,-1.06,-1.31,"All samples containing proteins related to IFF05497 except seven (IFF21355, IFF21358, IFF21356, IFF21361, IFF21370, IFF21357 and IFF21353) are able to modify IFF05588 under these reaction conditions",0.25,–
B6,-0.95,-1.12,–,–,–
B7,-1.05,-1.49,"All samples containing proteins related to IFF05497 except seven (IFF21355, IFF21358, IFF21356, IFF21361, IFF21370, IFF21357 and IFF21353) are able to modify IFF05588 under these reaction conditions",–,–
B8,-1.02,-1.52,"All samples containing proteins related to IFF05497 except seven (IFF21355, IFF21358, IFF21356, IFF21361, IFF21370, IFF21357 and IFF21353) are able to modify IFF05588 under these reaction conditions",–,–
B9,-0.99,-1.52,–,0.23,All samples containing proteins related to IFF05497 except one (IFF21362) are able to modify IFF05588 under these reaction conditions
